In the DeepSol protein solubility set:

experiment: soluble on expression in E. coli; label from the status in PepcDB or PDB records

Soluble on expression in E. coli, not soluble:
MGSDKIHHHHHHMSSTKIIATFNQSGGAAKTTITHNLGYHLAKKHRVLLVDMDPQASLTAFMGLGEVKLQTEQTIYGAIAEETPLYIWEKPIHGMHLVPTNIQLAGTEQKIFHDLTIDNRQRLKFVLSNVLDQYDYILIDCPPSLGILSIMSLVAASHVIIPVETQYKCYLGTNQLLETIARLKKGGHQKLQIACIIPTKYDNRNLQDTGILEEIKQQVEGRIHVTAPIPKSTAFPDATQAHLPLALHKKNHPAVSILEEITKYITQLSVTQGQSH
MGSDKIHHHHHHMSTFHPSHPTHNRLLAALPPIELDDLAPHLELVHLLPGDVLCKPGETLPYAYFPTSSVISIHCMLENGASSELTSVGREGMLGVSLFMGGEATQNWVSVQSAGYGYRLNAAFLLQEFNEGGMLQRLLLRYSQALITEAVQNVVCSRYHTAQQRLCRWLLSMLDRLGPQDLILTQESIASILGVRRESVTAIARKLLEAGTICYRRGHIMVIDQIGLQKETCECYKKVKKEFDQVFDEVKTCEKVRQNSINAANAL
MGSDKIHHHHHHMSTKHSKAAAEFLKNKKQAAWHDETLWLVRAKRDRLSKEVPEWEELRNMACATKLYSNSHLDELLVEFENNARANGAHVYWAKDADEYCNIVYNILNQHGVKHFIKSKSMLAEECELNPFLESKGIEVVESDLGERILQLMHLKPSHIVLPAIHIKREQVGELFEREMGTEKGNFDPTYLTHAARKNLRQKFIHAEAAMTGANFAVASTGEIVVCTNEGNADMGTSQPKLQIAAFGMEKIVPDRESLGVFTRLLARSATGQPITTYTSHYRKPREGGELHIIIVDNGRSKILADPKHIKTLNCIRCGACMNTCPVYRRSGGYSYTYFIPGPIGINLGMLKAPLHYYDNVSACSLCYSCSFVCPAKVDLAEQIYLWRQDLDKLGKADRMKKVMSGGMEFMMKRPSIFNMALKWAPLVNGVPRFLIYNGLNDWGKGREMPKFAKESFNEMWKKGKVK
MGSDKIHHHHHHMSTRIPTEESLDTQQKDFLKKLKDNHYVGQNIWIKGFPGSGKSVLLVYAIKYLLNNEATQNAKILLVVFTHSLIELCKAELAELNITNVKIVTMYEFLKTKRKYDYIFCDEVQDLTSRILIKMKDQTRYMLIVAGDSNQSIYSKDPQYQEAVVIPEKITQLIDSEDWGLLYVYRLTRSIITAIQKMIPSMNIFSAKRYMLKRDTQIRLCKAEFVDQEVEYIMREARKFVNRNQSCAILFPTKDKVLEFCDTVLQLEHKPVWEKWIDQYYEPYFKRLNDHLKENQVPIECVVNSYGSLLAAENDKRIVIMTYHGVKGLDFDNVFIPFANTDLYIPGDSNITQKLFMVAMSRSRNNLYITYTGMPLSYVSLFSSDSTICANISISNELHPNLSDDINIDF
MGSDKIHHHHHHMSTVHDEMGVMNTTVKFLHSSDLQIGMTRWFLSDEAQARFDDDRIRAIEKMGKIARKNQCEFIVLAGDVFEHNSLEQRTTGRALEALRSLKLPVYLLPGNHDPLTADSLFYRAKDIDGVTILSDTTVHGVAPGVEIIGAPLLHKMATSDLVAEALKDLEPTSNVRIAVGHGQAEARTTDHRADLIDLNTVEAKLADGTIDYLALGDTHSAQPVGTSGKVWFSGAPETTDFHDLDPDRVGGEVNSGKVLIVSASKGDVSVEEVEVGKWTFHALSKEITSGTDVEDFLDTLQAYPDKSRTVIKYGLRGTITLEQNRRLEEGIAGLEDVFASLKPRERTTDLVLEPGEEELANLDATGYAAEVLRELADSVVNGAAPEEDRDALNLLFRLSREV
MGSDKIHHHHHHMSVCARPERPWDERDRERFMHRNKVVSREDWFQAHKAHLAREKELTRLRERVAAERRELPWLKVRKDYVFETEQGPKKLAELFANRSQLIVYHFVFAPGSTHHCESCAFVADHMDGANRHLRHHDVSLVTISRAPLVELLPYKQRMGWTFDWVSSYASDFNFDMQVSFTDRQIASGEAVYNFETPVLTSKDLPGTTVFYKGETGDIFLTFMSRARGSEQFIGAYQYLDIAPKGRDETGPYGTFMDWVRLHDEYGNRSQRDDVCP
MGSDKIHHHHHHMSVTINDTSSASSTQGLSSTTAVEKNSSADLQNQFLTLLVAQLKNQDPTNPMSNDQLVSQLAQLNTVSGIEKLNTTLGSISGQINNNQSMQASTLIGHSVMIPGKDILVGKETSTPFGVELEKAAEVVTVTVNDATGKAVRTIELGTLSAGVHSFNWDSKLADGTVAPDGAYTFTVAASTGGAQQVVQPLSYAVVNSVVRGDSGALLDLGLRGKATLDDVRQIL
